Results taken from PMC5603524, “An alternate mode of oligomerization for E. coli SecA” (Scientific Reports, 2017).
“And” between values parts separate entries of the source, which are not always exact repeats. Equal entries are not always repeated.

B1: SecA-N95 (domain or fragment, E. coli, UniProt P10408 1-835, looked up)
chain: MLIKLLTKVFGSRNDRTLRRMRKVVNIINAMEPEMEKLSDEELKGKTAEFRARLEKGEVLENLIPEAFAVVREASKRVFGMRHFDVQLLGGMVLNERCIAEMRTGEGKTLTATLPAYLNALTGKGVHVVTVNDYLAQRDAENNRPLFEFLGLTVGINLPGMPAPAKREAYAADITYGTNNEYGFDYLRDNMAFSPEERVQRKLHYALVDEVDSILIDEARTPLIISGPAEDSSEMYKRVNKIIPHLIRQEKEDSETFQGEGHFSVDEKSRQVNLTERGLVLIEELLVKEGIMDEGESLYSPANIMLMHHVTAALRAHALFTRDVDYIVKDGEVIIVDEHTGRTMQGRRWSDGLHQAVEAKEGVQIQNENQTLASITFQNYFRLYEKLAGMTGTADTEAFEFSSIYKLDTVVVPTNRPMIRKDLPDLVYMTEAEKIQAIIEDIKERTAKGQPVLVGTISIEKSELVSNELTKAGIKHNVLNAKFHANEAAIVAQAGYPAAVTIATNMAGRGTDIVLGGSWQAEVAALENPTAEQIEKIKADWQVRHDAVLEAGGLHIIGTERHESRRIDNQLRGRSGRQGDAGSSRFYLSMEDALMRIFASDRVSGMMRKLGMKPGEAIEHPWVTKAIANAQRKVESRNFDIRKQLLEYDDVANDQRRAIYSQRNELLDVSDVSETINSIREDVFKATIDAYIPPQSLEEMWDIPGLQERLKNDFDLDLPIAEWLDKEPELHEETLRERILAQSIEVYQRKEEVVGAEMMRHFEKGVMLQTLDSLWKEHLAAMDYLRQGIHLRGYAQKDPKQEYKRESFSMFAAMLESLKYEVISTLSKVQVRMPE
notes: SecA, E. coli, truncated at residue 835 (stop codon after residue 835); source: E. coli BL21(DE3), purified (ammonium sulfate, PhenylSepharose, Cibacron Blue Sepharose, MonoQ)
B2: SecA-N95ΔN (domain or fragment, E. coli, UniProt P10408 15-835, looked up)
chain: DRTLRRMRKVVNIINAMEPEMEKLSDEELKGKTAEFRARLEKGEVLENLIPEAFAVVREASKRVFGMRHFDVQLLGGMVLNERCIAEMRTGEGKTLTATLPAYLNALTGKGVHVVTVNDYLAQRDAENNRPLFEFLGLTVGINLPGMPAPAKREAYAADITYGTNNEYGFDYLRDNMAFSPEERVQRKLHYALVDEVDSILIDEARTPLIISGPAEDSSEMYKRVNKIIPHLIRQEKEDSETFQGEGHFSVDEKSRQVNLTERGLVLIEELLVKEGIMDEGESLYSPANIMLMHHVTAALRAHALFTRDVDYIVKDGEVIIVDEHTGRTMQGRRWSDGLHQAVEAKEGVQIQNENQTLASITFQNYFRLYEKLAGMTGTADTEAFEFSSIYKLDTVVVPTNRPMIRKDLPDLVYMTEAEKIQAIIEDIKERTAKGQPVLVGTISIEKSELVSNELTKAGIKHNVLNAKFHANEAAIVAQAGYPAAVTIATNMAGRGTDIVLGGSWQAEVAALENPTAEQIEKIKADWQVRHDAVLEAGGLHIIGTERHESRRIDNQLRGRSGRQGDAGSSRFYLSMEDALMRIFASDRVSGMMRKLGMKPGEAIEHPWVTKAIANAQRKVESRNFDIRKQLLEYDDVANDQRRAIYSQRNELLDVSDVSETINSIREDVFKATIDAYIPPQSLEEMWDIPGLQERLKNDFDLDLPIAEWLDKEPELHEETLRERILAQSIEVYQRKEEVVGAEMMRHFEKGVMLQTLDSLWKEHLAAMDYLRQGIHLRGYAQKDPKQEYKRESFSMFAAMLESLKYEVISTLSKVQVRMPE
notes: SecA, E. coli, first 14 N-terminal residues removed, truncated at residue 835; also called SecA-N95∆N; SecA-N95ΔN14
B3: SecA-N68 with a wild-type N-terminus (domain or fragment, E. coli, UniProt P10408 1-610, looked up)
chain: MLIKLLTKVFGSRNDRTLRRMRKVVNIINAMEPEMEKLSDEELKGKTAEFRARLEKGEVLENLIPEAFAVVREASKRVFGMRHFDVQLLGGMVLNERCIAEMRTGEGKTLTATLPAYLNALTGKGVHVVTVNDYLAQRDAENNRPLFEFLGLTVGINLPGMPAPAKREAYAADITYGTNNEYGFDYLRDNMAFSPEERVQRKLHYALVDEVDSILIDEARTPLIISGPAEDSSEMYKRVNKIIPHLIRQEKEDSETFQGEGHFSVDEKSRQVNLTERGLVLIEELLVKEGIMDEGESLYSPANIMLMHHVTAALRAHALFTRDVDYIVKDGEVIIVDEHTGRTMQGRRWSDGLHQAVEAKEGVQIQNENQTLASITFQNYFRLYEKLAGMTGTADTEAFEFSSIYKLDTVVVPTNRPMIRKDLPDLVYMTEAEKIQAIIEDIKERTAKGQPVLVGTISIEKSELVSNELTKAGIKHNVLNAKFHANEAAIVAQAGYPAAVTIATNMAGRGTDIVLGGSWQAEVAALENPTAEQIEKIKADWQVRHDAVLEAGGLHIIGTERHESRRIDNQLRGRSGRQGDAGSSRFYLSMEDALMRIFASDRVSGMMRKL
notes: NBD1, PPXD and NBD2 with the unstructured N- and C-termini
B4: H6-SecA-N68 (domain or fragment, E. coli, UniProt P10408 6-610, looked up)
chain: LTKVFGSRNDRTLRRMRKVVNIINAMEPEMEKLSDEELKGKTAEFRARLEKGEVLENLIPEAFAVVREASKRVFGMRHFDVQLLGGMVLNERCIAEMRTGEGKTLTATLPAYLNALTGKGVHVVTVNDYLAQRDAENNRPLFEFLGLTVGINLPGMPAPAKREAYAADITYGTNNEYGFDYLRDNMAFSPEERVQRKLHYALVDEVDSILIDEARTPLIISGPAEDSSEMYKRVNKIIPHLIRQEKEDSETFQGEGHFSVDEKSRQVNLTERGLVLIEELLVKEGIMDEGESLYSPANIMLMHHVTAALRAHALFTRDVDYIVKDGEVIIVDEHTGRTMQGRRWSDGLHQAVEAKEGVQIQNENQTLASITFQNYFRLYEKLAGMTGTADTEAFEFSSIYKLDTVVVPTNRPMIRKDLPDLVYMTEAEKIQAIIEDIKERTAKGQPVLVGTISIEKSELVSNELTKAGIKHNVLNAKFHANEAAIVAQAGYPAAVTIATNMAGRGTDIVLGGSWQAEVAALENPTAEQIEKIKADWQVRHDAVLEAGGLHIIGTERHESRRIDNQLRGRSGRQGDAGSSRFYLSMEDALMRIFASDRVSGMMRKL
notes: SecA, E. coli, residues 6 to 610; lacks the C-terminal helical domains; The tag MHHHHHH stands in place of the first residues of SecA and was not removed; also called His6-SecA-N68; N-terminal histidine-tagged version of SecA-N68; not shown: His6 (MHHHHHH), N-terminal, kept

What was measured:
SecA-N68∆C (E. coli) = SecA-N68∆C (E. coli) (UniProt P10408); assay: AUC; sedimentation velocity, 20 °C, 50 mM Tris-HCl pH 7.5, 100 mM KCl, 2 mM EDTA, 5 mM MgCl2, 5 mM TCEP-HCl; SedFit analysis at a range of concentrations
SecA-N68∆N (E. coli) = SecA-N68∆N (E. coli) (UniProt P10408); assay: as above
[1] = target: the molecule itself; assay: AUC; sedimentation equilibrium, 20 °C, 50 mM Tris-HCl pH 7.5, 100 mM KCl, 2 mM EDTA, 5 mM MgCl2; global fit of nine curves at three rotor speeds; dimer to monomers
[2] = target: the molecule itself; assay: AUC; sedimentation velocity, 20 °C, 50 mM Tris-HCl pH 7.5, 100 mM KCl, 2 mM EDTA, 5 mM MgCl2, 5 mM TCEP-HCl; SedFit analysis at a range of concentrations
[3] = target: the molecule itself; assay: SEC; analytical gel filtration, Superdex 200 HR 10/30, 50 mM Tris-HCl pH 7.5, 100 mM KCl, 1 mM EDTA, 5 mM MgCl2, 5 mM β-mercaptoethanol, room temperature; H6-SecA-N68 applied at up to 4 mg/mL, SecA-N68∆NC at 10 mg/mL

Molecule | Kd [1] | stoichiometry N [2] | further results
SecA-N68∆C (from UniProt P10408 1-590) (domain or fragment) | – | – | stoichiometry N (SecA-N68∆C (E. coli)): 2
SecA-N68∆N (from UniProt P10408 15-610) (domain or fragment) | – | – | relative amount of the dimer at 4 mg/mL (SecA-N68∆N (E. coli)): 50%; stoichiometry N (SecA-N68∆N (E. coli)): 2
B1 | < 1 µM | 2 | –
B2 | 24.5 µM | 2 | –
B3 | – | 2 and 4 | –
B4 | – | – | binding result [3]: binds
